In the supplement of paper PMC10126150:
± gives the standard deviation of the averaged measurements.

System: ATP
Assay: switch fluorescence ratio, 500 uM ATP over buffer (Cy3 cluster intensity, sum of 5 cycles each) (fold (ratio)); higher = stronger signal-on switching upon ATP binding; sequences stand for … in TCGTCGGCAGCGTCAGATGTGTATAAGAGACAGTTTTTTTTTTTTTTTTTTTTTTTTT…TC
Settings: aptamer strand: ATP DNA aptamer (quencher-CACCTGGGGGAGTATTGCGGAGGAAGG + anchor), 100 nM annealed; ATP concentration: 500 uM
Outline: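 Cy3-labelled switching-strand clusters on a modified Illumina MiSeq flow-cell were annealed to 100 nM quencher-labelled ATP aptamer and imaged first in selection buffer, then after 15 min with 500 uM ATP at 22 °C. NaOH stripping and re-annealing separated each of five buffer/ATP cycles, and clusters outside 100-1000 RFU were excluded. The fluorescence ratio sums target-cycle Cy3 intensity over buffer-cycle Cy3 intensity per cluster and averages it per switch-domain sequence.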
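Note: ATP exposure 15 min at 22 °C before imaging.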

TTCCACATTT
switch fluorescence ratio: 1.12 ± 0.16

TTCCACGACT
switch fluorescence ratio: 1.02 ± 0.025

TTCCAGCGGT
switch fluorescence ratio: 1.03 ± 0.017

TTCCAGCTTT
switch fluorescence ratio: 1.02 ± 0.024

TTCCAGGAGC
switch fluorescence ratio: 0.946 ± 0.091

TTCCAGGCGT
switch fluorescence ratio: 1.23 ± 0.055

TTCCAGTATT
switch fluorescence ratio: 1.05 ± 0.049

TTCCATATCG
switch fluorescence ratio: 1.03 ± 0.061

TTCCATATTT
switch fluorescence ratio: 1.02 ± 0.026

TTCCATGGTC
switch fluorescence ratio: 1.02 ± 0.014

TTCCATGTGT
switch fluorescence ratio: 1.06 ± 0.044

TTCCATGTTT
switch fluorescence ratio: 1.06 ± 0.11

TTCCATTTGC
switch fluorescence ratio: 1.05 ± 0.074

TTCCCACCGT
switch fluorescence ratio: 1.06 ± 0.031

TTCCGACGAT
switch fluorescence ratio: 3.15 ± 2.3

TTCCGGATTA
switch fluorescence ratio: 1.07 ± 0.065

TTCCGGCAAA
switch fluorescence ratio: 1.5 ± 0.7

TTCCGGCTTT
switch fluorescence ratio: 1.01 ± 0.033

TTCCGGGCCG
switch fluorescence ratio: 1.03 ± 0.037

TTCCGGGCTT
switch fluorescence ratio: 1.41 ± 0.38

TTCCGGGGGC
switch fluorescence ratio: 1.61 ± 0.98

TTCCGGGTAC
switch fluorescence ratio: 3.27 ± 0.22

TTCCGGTAAC
switch fluorescence ratio: 2.07 ± 0.13

TTCCGGTGAA
switch fluorescence ratio: 1.0572 ± 0.00078

TTCCGTGGGA
switch fluorescence ratio: 1.06 ± 0.045

TTCCGTTTTT
switch fluorescence ratio: 1.51 ± 0.66

TTCCTATGTT
switch fluorescence ratio: 0.991 ± 0.056

TTCCTCAGAC
switch fluorescence ratio: 1.6 ± 0.87

TTCCTGAAAA
switch fluorescence ratio: 0.981 ± 0.016

TTCCTGCGCT
switch fluorescence ratio: 1.77 ± 1

TTCCTGGTGG
switch fluorescence ratio: 1.05 ± 0.073

TTCCTGTTTC
switch fluorescence ratio: 1.01 ± 0.023

TTCCTTCATT
switch fluorescence ratio: 1.04 ± 0.016

TTCCTTGTTA
switch fluorescence ratio: 0.9973 ± 0.0052

TTCCTTTGGG
switch fluorescence ratio: 0.964 ± 0.019

TTCGAAGGGC
switch fluorescence ratio: 1.14 ± 0.16

TTCGAGAAGG
switch fluorescence ratio: 0.972 ± 0.018

TTCGAGGTGC
switch fluorescence ratio: 1.04 ± 0.05

TTCGAGTCGG
switch fluorescence ratio: 0.967 ± 0.011

TTCGAGTTTT
switch fluorescence ratio: 0.9669 ± 0.00099

TTCGATATTT
switch fluorescence ratio: 0.982 ± 0.017

TTCGATGATA
switch fluorescence ratio: 1.07 ± 0.08

TTCGATGGGG
switch fluorescence ratio: 0.993 ± 0.048

TTCGATGTGG
switch fluorescence ratio: 1.01 ± 0.018

TTCGATTACG
switch fluorescence ratio: 1.03 ± 0.018

TTCGCGACTT
switch fluorescence ratio: 0.987 ± 0.029

TTCGCGGGTG
switch fluorescence ratio: 1.05 ± 0.025

TTCGCTCGAG
switch fluorescence ratio: 1 ± 0.017

TTCGCTCTTT
switch fluorescence ratio: 1.06 ± 0.025

TTCGCTGTTC
switch fluorescence ratio: 1.28 ± 0.027

TTCGCTTTTT
switch fluorescence ratio: 0.991 ± 0.032

TTCGGAGGAG
switch fluorescence ratio: 1 ± 0.012

TTCGGAGGAT
switch fluorescence ratio: 1.02 ± 0.048

TTCGGAGGCT
switch fluorescence ratio: 1.23 ± 0.3

TTCGGATAAT
switch fluorescence ratio: 0.98 ± 0.011

TTCGGCCCCA
switch fluorescence ratio: 0.99 ± 0.031

TTCGGCGCCA
switch fluorescence ratio: 1.03 ± 0.013

TTCGGCGGTG
switch fluorescence ratio: 0.98 ± 0.045

TTCGGGAACA
switch fluorescence ratio: 1.02 ± 0.038

TTCGGGACGC
switch fluorescence ratio: 1.03 ± 0.053

TTCGGGATTT
switch fluorescence ratio: 1.007 ± 0.0062

TTCGGGGAAT
switch fluorescence ratio: 0.982 ± 0.034

TTCGGGGACG
switch fluorescence ratio: 0.969 ± 0.052

TTCGGGGATG
switch fluorescence ratio: 0.991 ± 0.048

TTCGGGGGAG
switch fluorescence ratio: 0.979 ± 0.026

TTCGGGGGCA
switch fluorescence ratio: 1.01 ± 0.052

TTCGGGGGGC
switch fluorescence ratio: 0.961 ± 0.039

TTCGGGGTTC
switch fluorescence ratio: 1.0029 ± 0.00079

TTCGGTACGT
switch fluorescence ratio: 0.999 ± 0.0024

TTCGGTCACC
switch fluorescence ratio: 1.014 ± 0.0054

TTCGGTGAAG
switch fluorescence ratio: 1.01 ± 0.0051

TTCGGTGTGG
switch fluorescence ratio: 1.01 ± 0.04

TTCGGTTATA
switch fluorescence ratio: 0.986 ± 0.053

TTCGGTTGGT
switch fluorescence ratio: 1.01 ± 0.029

TTCGGTTTGC
switch fluorescence ratio: 1.02 ± 0.066

TTCGGTTTGT
switch fluorescence ratio: 0.98 ± 0.032

TTCGTAAGTT
switch fluorescence ratio: 0.99485 ± 0.00084

TTCGTAGGCA
switch fluorescence ratio: 1.02 ± 0.042

TTCGTATACC
switch fluorescence ratio: 0.988 ± 0.051

TTCGTATAGC
switch fluorescence ratio: 1.03 ± 0.036

TTCGTCAGGA
switch fluorescence ratio: 0.978 ± 0.036

TTCGTCAGTG
switch fluorescence ratio: 0.986 ± 0.013

TTCGTGAATT
switch fluorescence ratio: 1.11 ± 0.1

TTCGTGCTTC
switch fluorescence ratio: 0.963 ± 0.024

TTCGTGGGGC
switch fluorescence ratio: 1.18 ± 0.21

TTCGTGGTGT
switch fluorescence ratio: 1.03 ± 0.015

TTCGTGGTTG
switch fluorescence ratio: 0.967 ± 0.034

TTCGTGTGGC
switch fluorescence ratio: 0.932 ± 0.02

TTCGTGTTAC
switch fluorescence ratio: 1.32 ± 0.26

TTCGTGTTCT
switch fluorescence ratio: 1 ± 0.03

TTCGTTAGAA
switch fluorescence ratio: 1.0091 ± 0.00067

TTCGTTCGAA
switch fluorescence ratio: 1.03 ± 0.067

TTCGTTTGGG
switch fluorescence ratio: 0.967 ± 0.047

TTCGTTTTCG
switch fluorescence ratio: 0.991 ± 0.029

TTCGTTTTGG
switch fluorescence ratio: 1.01 ± 0.038

TTCGTTTTTC
switch fluorescence ratio: 0.956 ± 0.035

TTCTAAAAAT
switch fluorescence ratio: 1.06 ± 0.023

TTCTACACAG
switch fluorescence ratio: 1.04 ± 0.032

TTCTAGCTAT
switch fluorescence ratio: 1.58 ± 0.78

TTCTAGGGGT
switch fluorescence ratio: 0.966 ± 0.012

TTCTATACCG
switch fluorescence ratio: 0.982 ± 0.036

TTCTATTCGA
switch fluorescence ratio: 1.008 ± 0.0058

TTCTCGGACG
switch fluorescence ratio: 0.991 ± 0.017

TTCTCGGGCT
switch fluorescence ratio: 0.994 ± 0.031

TTCTCGGGTT
switch fluorescence ratio: 0.99 ± 0.023

TTCTCGTTGG
switch fluorescence ratio: 1.02 ± 0.032

TTCTCTGGGG
switch fluorescence ratio: 1.025 ± 0.0071

TTCTGATTAT
switch fluorescence ratio: 1 ± 0.035

TTCTGCGTGC
switch fluorescence ratio: 1.85 ± 1.5

TTCTGGATCC
switch fluorescence ratio: 1.02 ± 0.043

TTCTGGCTAT
switch fluorescence ratio: 1.01 ± 0.039

TTCTGGGACT
switch fluorescence ratio: 0.999 ± 0.021

TTCTGGGCGG
switch fluorescence ratio: 1.02 ± 0.032

TTCTGGGGAT
switch fluorescence ratio: 1.009 ± 0.0014

TTCTGGGGGC
switch fluorescence ratio: 1.05 ± 0.064

TTCTGGTATA
switch fluorescence ratio: 1.02 ± 0.024

TTCTGGTTAC
switch fluorescence ratio: 1.059 ± 0.004

TTCTGTCCAC
switch fluorescence ratio: 1.03 ± 0.013

TTCTGTGGCG
switch fluorescence ratio: 1 ± 0.069

TTCTGTGTTT
switch fluorescence ratio: 1.01 ± 0.037

TTCTGTTCGC
switch fluorescence ratio: 1.03 ± 0.025

TTCTGTTGGT
switch fluorescence ratio: 1.02 ± 0.087

TTCTGTTTCT
switch fluorescence ratio: 0.995 ± 0.011

TTCTTAGCAC
switch fluorescence ratio: 1.58 ± 0.17

TTCTTAGCTT
switch fluorescence ratio: 0.998 ± 0.019

TTCTTATTGT
switch fluorescence ratio: 0.975 ± 0.019

TTCTTCCTTT
switch fluorescence ratio: 1.028 ± 0.0051

TTCTTGCGCC
switch fluorescence ratio: 1.076 ± 0.0073

TTCTTGGACA
switch fluorescence ratio: 0.993 ± 0.016

TTCTTGTGGG
switch fluorescence ratio: 1.05 ± 0.057

TTCTTGTGTG
switch fluorescence ratio: 1 ± 0.041

TTCTTTAATT
switch fluorescence ratio: 0.963 ± 0.01

TTCTTTGGGG
switch fluorescence ratio: 1.04 ± 0.093

TTCTTTGGGT
switch fluorescence ratio: 0.947 ± 0.036

TTCTTTTGTT
switch fluorescence ratio: 1 ± 0.025

TTCTTTTTGC
switch fluorescence ratio: 0.9678 ± 0.0084

TTCTTTTTGG
switch fluorescence ratio: 0.97 ± 0.042

TTGAAAAAGT
switch fluorescence ratio: 0.992 ± 0.018

TTGAAAAGAT
switch fluorescence ratio: 1.05 ± 0.04

TTGAAAATGG
switch fluorescence ratio: 0.992 ± 0.026

TTGAAACTCG
switch fluorescence ratio: 1.063 ± 0.0023

TTGAAATCGC
switch fluorescence ratio: 1.01 ± 0.041

TTGAAATTGG
switch fluorescence ratio: 0.99 ± 0.031

TTGAACGGGT
switch fluorescence ratio: 1.07 ± 0.1

TTGAACGTTT
switch fluorescence ratio: 0.974 ± 0.019

TTGAACTGTG
switch fluorescence ratio: 1.02 ± 0.22

TTGAAGGATG
switch fluorescence ratio: 0.997 ± 0.029

TTGAAGTCCG
switch fluorescence ratio: 1.03 ± 0.026

TTGAATATCT
switch fluorescence ratio: 1.03 ± 0.032

TTGAATATTT
switch fluorescence ratio: 1 ± 0.014

TTGAATGGTT
switch fluorescence ratio: 0.994 ± 0.021

TTGAATGTCA
switch fluorescence ratio: 0.968 ± 0.019

TTGACAATGG
switch fluorescence ratio: 0.99 ± 0.012

TTGACAGT
switch fluorescence ratio: 0.9777 ± 0.0022

TTGACCGGGA
switch fluorescence ratio: 1.14 ± 0.27

TTGACCTGGG
switch fluorescence ratio: 1.1 ± 0.098

TTGACGACGG
switch fluorescence ratio: 1.01 ± 0.048

TTGACGATTT
switch fluorescence ratio: 1.05 ± 0.063

TTGACGGAGA
switch fluorescence ratio: 0.993 ± 0.039

TTGACGTATA
switch fluorescence ratio: 1.96 ± 1.2

TTGACTTGTC
switch fluorescence ratio: 0.9991 ± 0.0069

TTGAGAAGGG
switch fluorescence ratio: 1.04 ± 0.04

TTGAGAGCGG
switch fluorescence ratio: 1.01 ± 0.047

TTGAGAGGGA
switch fluorescence ratio: 0.99 ± 0.019

TTGAGAGGTT
switch fluorescence ratio: 1.02 ± 0.039

TTGAGAGTTT
switch fluorescence ratio: 1.04 ± 0.093

TTGAGATATG
switch fluorescence ratio: 0.9989 ± 0.0076

TTGAGCAAGG
switch fluorescence ratio: 1.06 ± 0.089

TTGAGCTTGT
switch fluorescence ratio: 1.02 ± 0.027

TTGAGGACGT
switch fluorescence ratio: 0.975 ± 0.045

TTGAGGATTG
switch fluorescence ratio: 1 ± 0.018

TTGAGGGAAT
switch fluorescence ratio: 0.992 ± 0.033

TTGAGGTCGT
switch fluorescence ratio: 1.023 ± 0.0038

TTGAGGTCTT
switch fluorescence ratio: 0.964 ± 0.024

TTGAGTAACT
switch fluorescence ratio: 0.967 ± 0.024

TTGAGTACCG
switch fluorescence ratio: 0.959 ± 0.022

TTGAGTACGT
switch fluorescence ratio: 0.992 ± 0.045

TTGAGTACTA
switch fluorescence ratio: 1.01 ± 0.022

TTGAGTATGC
switch fluorescence ratio: 1.07 ± 0.047

TTGAGTGAGC
switch fluorescence ratio: 0.988 ± 0.025

TTGAGTGGGT
switch fluorescence ratio: 0.99 ± 0.042

TTGAGTGTGC
switch fluorescence ratio: 1.02 ± 0.023

TTGAGTTTAT
switch fluorescence ratio: 1.02 ± 0.12

TTGAGTTTGT
switch fluorescence ratio: 0.977 ± 0.015

TTGATAACAA
switch fluorescence ratio: 1.04 ± 0.036

TTGATAGAAA
switch fluorescence ratio: 1.01 ± 0.038

TTGATAGCTT
switch fluorescence ratio: 0.998 ± 0.018

TTGATAGGGG
switch fluorescence ratio: 1.01 ± 0.031

TTGATATAAT
switch fluorescence ratio: 0.981 ± 0.014

TTGATATCGG
switch fluorescence ratio: 0.979 ± 0.023

TTGATATGGT
switch fluorescence ratio: 0.997 ± 0.022

TTGATCGATG
switch fluorescence ratio: 0.9886 ± 0.0068

TTGATCGCTC
switch fluorescence ratio: 1.82 ± 1

TTGATCTGTT
switch fluorescence ratio: 0.972 ± 0.021

TTGATGAAGA
switch fluorescence ratio: 1.01 ± 0.036

TTGATGCCCA
switch fluorescence ratio: 0.97 ± 0.023

TTGATTATAT
switch fluorescence ratio: 1.02 ± 0.012

TTGATTTGTC
switch fluorescence ratio: 0.988 ± 0.011

TTGCAAGAGA
switch fluorescence ratio: 1.022 ± 0.0082

TTGCAAGGGC
switch fluorescence ratio: 1.08 ± 0.074
